Assay results as given in publication PMC2111714.

Molecular target: Cross-linked succinyl Con A (resuccinylated) (Canavalia ensiformis (jack bean))
Assay: radioligand binding

Question: “Dolichos biflorus lectin (natural protein)” was tested. Which glycoprotein specifically bound did it give?
Answer: The glycoprotein specifically bound was 96 ng/plate.
